Data reported in article PMC9674701, “Cancer cell survival depends on collagen uptake into tumor-associated stroma” (Nature Communications, 2022).

Target: FITC-labeled bovine type I Collagen (Chondrex 4001) (bovine, UniProt P02453 162-1217; P02465 80-1117, FITC label (FITC-Col labeled at a 1:1 molar ratio); labelled residues not stated | FITC label (FITC-Col labeled at a 1:1 molar ratio); labelled residues not stated)
Test: cell-based or functional assay

FITC-labeled bovine type I Collagen (Chondrex 4001), sequence (P02453 162-1217, chain 1 of 2): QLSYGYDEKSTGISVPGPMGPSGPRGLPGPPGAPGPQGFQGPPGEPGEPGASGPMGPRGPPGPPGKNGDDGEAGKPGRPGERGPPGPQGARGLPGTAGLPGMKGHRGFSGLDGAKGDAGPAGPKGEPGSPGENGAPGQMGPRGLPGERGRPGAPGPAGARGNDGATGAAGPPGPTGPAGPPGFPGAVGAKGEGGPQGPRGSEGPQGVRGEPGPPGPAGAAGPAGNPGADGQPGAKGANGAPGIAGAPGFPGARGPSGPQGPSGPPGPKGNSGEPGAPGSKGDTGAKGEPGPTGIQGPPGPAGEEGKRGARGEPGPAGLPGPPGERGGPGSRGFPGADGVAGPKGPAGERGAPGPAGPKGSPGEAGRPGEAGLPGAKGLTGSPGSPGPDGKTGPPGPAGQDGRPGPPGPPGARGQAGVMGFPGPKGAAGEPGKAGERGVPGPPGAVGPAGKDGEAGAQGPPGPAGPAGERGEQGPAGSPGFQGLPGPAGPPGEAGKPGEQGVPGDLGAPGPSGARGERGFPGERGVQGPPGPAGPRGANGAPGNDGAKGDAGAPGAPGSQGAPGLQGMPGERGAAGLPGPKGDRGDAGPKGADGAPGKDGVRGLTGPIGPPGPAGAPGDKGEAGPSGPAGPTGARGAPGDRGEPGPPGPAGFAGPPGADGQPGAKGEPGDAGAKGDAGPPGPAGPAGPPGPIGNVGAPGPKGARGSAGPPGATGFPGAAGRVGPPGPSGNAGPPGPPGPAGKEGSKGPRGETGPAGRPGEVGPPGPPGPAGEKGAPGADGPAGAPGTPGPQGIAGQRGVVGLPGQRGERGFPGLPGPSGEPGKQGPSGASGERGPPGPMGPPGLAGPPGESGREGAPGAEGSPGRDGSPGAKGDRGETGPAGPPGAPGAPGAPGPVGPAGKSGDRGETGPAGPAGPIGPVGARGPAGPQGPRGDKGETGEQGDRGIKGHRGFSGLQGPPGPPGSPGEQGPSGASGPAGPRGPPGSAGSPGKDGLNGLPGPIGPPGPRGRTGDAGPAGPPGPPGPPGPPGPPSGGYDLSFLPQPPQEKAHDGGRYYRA
FITC-labeled bovine type I Collagen (Chondrex 4001), sequence (P02465 80-1117, chain 2 of 2): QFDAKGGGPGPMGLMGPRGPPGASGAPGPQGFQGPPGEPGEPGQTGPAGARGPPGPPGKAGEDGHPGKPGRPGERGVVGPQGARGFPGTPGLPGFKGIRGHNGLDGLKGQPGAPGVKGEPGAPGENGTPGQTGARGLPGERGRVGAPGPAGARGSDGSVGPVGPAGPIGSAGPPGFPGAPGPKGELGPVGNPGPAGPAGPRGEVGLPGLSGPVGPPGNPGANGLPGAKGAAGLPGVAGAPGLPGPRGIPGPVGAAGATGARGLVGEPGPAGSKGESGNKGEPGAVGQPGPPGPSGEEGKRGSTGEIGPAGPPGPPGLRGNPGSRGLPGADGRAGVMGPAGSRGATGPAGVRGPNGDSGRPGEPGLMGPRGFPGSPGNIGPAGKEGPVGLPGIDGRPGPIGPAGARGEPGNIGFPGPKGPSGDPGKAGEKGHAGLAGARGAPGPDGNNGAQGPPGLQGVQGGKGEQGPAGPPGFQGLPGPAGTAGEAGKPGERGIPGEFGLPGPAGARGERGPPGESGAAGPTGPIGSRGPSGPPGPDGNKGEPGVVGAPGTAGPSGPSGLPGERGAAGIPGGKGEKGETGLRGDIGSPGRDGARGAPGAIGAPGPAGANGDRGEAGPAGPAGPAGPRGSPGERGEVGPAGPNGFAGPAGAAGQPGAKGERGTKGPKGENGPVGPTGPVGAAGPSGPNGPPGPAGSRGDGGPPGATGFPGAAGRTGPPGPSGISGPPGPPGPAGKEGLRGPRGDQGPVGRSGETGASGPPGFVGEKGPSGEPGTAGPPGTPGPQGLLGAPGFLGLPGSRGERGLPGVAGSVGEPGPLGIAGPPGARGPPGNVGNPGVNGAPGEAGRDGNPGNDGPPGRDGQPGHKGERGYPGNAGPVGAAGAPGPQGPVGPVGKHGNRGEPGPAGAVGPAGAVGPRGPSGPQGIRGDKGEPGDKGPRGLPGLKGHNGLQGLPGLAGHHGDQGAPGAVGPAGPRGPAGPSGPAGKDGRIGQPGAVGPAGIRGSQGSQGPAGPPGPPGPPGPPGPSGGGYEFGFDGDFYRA

B1: TEM8 on TEM8 overexpressing CHO cells (CHO-TEM8), wild type (receptor)
chain: not shown
B1 was tested, and the “FITC-col internalization assay, flow cytometry of FITC-col trapped inside cells (Fig. 4e)” value was 5 fold and the “soluble FITC released into the culture supernatant from a FITC-Col gel, 48 h (Fig. 4d)” value was about 3 fold.
